Assay results: patent publication US20250276075A1, “METHODS OF TREATING AXL-EXPRESSING CANCERS WITH ANTI-AXL ANTIBODIES, ANTIBODY FRAGMENTS AND THEIR IMMUNOCONJUGATES” (BIOATLA, INC., priority 2020, published 2025)
“Also recorded” adds a separate entry of the source.

Key:
cynomolgus monkey Axl = assay: BA3011 binding to cynomolgus monkey Axl
[1] = test system: human tumor cell line derived xenograft tumors expressing Axl; assay: BA3011 anti-tumor efficacy in xenograft mouse models; type: in vivo
Description: Tumor cell lines representing NSCLC (LCLC103H), prostate (DU145), and pancreatic tumor (MIAPaCa2) were tested in this in vivo mouse model system. Once tumors were established at a size of about 150 mm3, animals were treated with BA3011 at the indicated dose levels following the indicated schedule. BA3011 induced greater than 70% TGI in 4 out of 7 models tested, as shown on FIG. 17D.

human Axl = target: T1, human Axl (Homo sapiens, UniProt P30530); assay: BA3011 binding to human Axl in TME and normal tissue conditions
T1 sequence (P30530 26-894): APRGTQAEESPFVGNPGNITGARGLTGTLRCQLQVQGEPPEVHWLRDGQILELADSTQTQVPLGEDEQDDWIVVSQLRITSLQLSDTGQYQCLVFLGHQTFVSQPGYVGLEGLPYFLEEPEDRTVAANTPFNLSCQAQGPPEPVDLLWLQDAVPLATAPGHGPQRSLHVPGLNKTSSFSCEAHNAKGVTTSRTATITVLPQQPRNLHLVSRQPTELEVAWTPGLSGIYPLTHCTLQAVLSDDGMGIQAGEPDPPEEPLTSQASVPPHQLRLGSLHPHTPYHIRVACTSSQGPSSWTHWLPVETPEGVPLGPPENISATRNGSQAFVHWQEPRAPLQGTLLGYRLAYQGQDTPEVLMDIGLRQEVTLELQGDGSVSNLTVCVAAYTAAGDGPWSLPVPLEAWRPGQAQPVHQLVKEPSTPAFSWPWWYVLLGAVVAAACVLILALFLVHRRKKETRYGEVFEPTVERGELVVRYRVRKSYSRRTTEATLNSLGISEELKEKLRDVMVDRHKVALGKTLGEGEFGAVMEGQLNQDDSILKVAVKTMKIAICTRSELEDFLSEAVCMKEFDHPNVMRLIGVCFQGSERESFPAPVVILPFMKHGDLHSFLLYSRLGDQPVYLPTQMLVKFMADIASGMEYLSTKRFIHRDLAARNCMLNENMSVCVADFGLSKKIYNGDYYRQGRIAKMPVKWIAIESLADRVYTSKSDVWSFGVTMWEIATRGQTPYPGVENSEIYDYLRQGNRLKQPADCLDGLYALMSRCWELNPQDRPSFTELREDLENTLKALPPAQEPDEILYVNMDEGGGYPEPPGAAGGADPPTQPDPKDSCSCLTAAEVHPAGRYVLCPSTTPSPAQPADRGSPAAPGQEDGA

[2] = BA3011 plasma exposure in monkey toxicology study; type: in vivo, cynomolgus monkey
Description: Based on the results at the 5 and 10 mg/kg/dose, the no-observed-adverse-effect-level (NOAEL) of BA3011 was considered to be 1 mg/kg/dose for both males and females. […] The highest non-severely toxic dose (HNSTD) was 5 mg/kg/dose, with C0 on Day 22 at 111 μg/mL and AUC0-inf at 2370 μg·h/mL.

mouse Axl = target: T2, mouse Axl (Mus musculus, UniProt Q00993); assay: BA3011 binding to mouse Axl
T2 sequence (Q00993 19-888): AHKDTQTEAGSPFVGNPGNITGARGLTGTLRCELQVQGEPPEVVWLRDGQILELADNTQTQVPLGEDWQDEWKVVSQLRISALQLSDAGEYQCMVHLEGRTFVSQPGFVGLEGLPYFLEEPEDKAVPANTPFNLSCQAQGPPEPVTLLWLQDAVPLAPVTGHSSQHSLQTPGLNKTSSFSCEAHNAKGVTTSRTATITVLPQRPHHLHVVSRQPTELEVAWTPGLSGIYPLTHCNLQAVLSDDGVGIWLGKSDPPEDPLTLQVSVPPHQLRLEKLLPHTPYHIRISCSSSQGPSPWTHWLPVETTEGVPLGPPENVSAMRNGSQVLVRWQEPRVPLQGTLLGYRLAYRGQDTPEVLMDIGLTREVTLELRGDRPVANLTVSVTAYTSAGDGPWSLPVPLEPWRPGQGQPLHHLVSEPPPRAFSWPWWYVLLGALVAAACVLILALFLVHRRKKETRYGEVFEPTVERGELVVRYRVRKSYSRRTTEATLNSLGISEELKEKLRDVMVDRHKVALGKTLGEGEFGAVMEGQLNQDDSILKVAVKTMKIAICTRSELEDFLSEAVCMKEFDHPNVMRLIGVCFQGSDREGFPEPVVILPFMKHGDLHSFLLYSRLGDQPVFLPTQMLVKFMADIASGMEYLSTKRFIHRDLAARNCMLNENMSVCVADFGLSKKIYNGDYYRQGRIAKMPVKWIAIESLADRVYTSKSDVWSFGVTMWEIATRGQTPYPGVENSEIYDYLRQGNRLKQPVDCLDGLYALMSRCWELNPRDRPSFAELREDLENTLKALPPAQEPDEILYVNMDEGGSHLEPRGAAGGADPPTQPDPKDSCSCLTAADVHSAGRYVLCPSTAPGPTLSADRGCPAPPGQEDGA

[3] = conditions mimicking the TME (pH 6.0-7.0)
[4] = conditions mimicking the normal tissue environment (pH 7.3-7.4)
[5] = at the dose and schedules tested

B1: Mecbotamab vedotin (conjugate, chains of the INN, looked up)
VH: EVQLVQSGAEVKKPGATVKISCKVSGYSFWGATMNWIRQPPGKGLEWIGLIKPSNGGTSYNQKFKGRVTISADKSISTAYLQWSSLKASDTAMYYCAHGHYESYEAMDYWGQGTLVTVSS
VL: DIQMTQSPSSLSASVGDRVTITCKASQDVVSAVAWYQQKPGQAPRLLIYWQDTRHTGVPSRFSGSGSGTEFTLTISSLQPDDFATYYCQEHFSPPLTFGQGTKVEIK
modifications: MC-vc-PAB-MMAE conjugate
For B1, the “cross-reactivity to the cynomolgus Axl protein” value (cynomolgus monkey Axl) was “cross-reacted”, the “binding to cynomolgus monkey Axl” value (cynomolgus monkey Axl; [3]) was “high affinity and specificity” and the “binding to cynomolgus monkey Axl” value (cynomolgus monkey Axl; [4]) was “reduced binding”. For the same molecule, the body weight loss [1, 5] was “did not induce body weight loss”, the “clinical signs of toxicity” value [1, 5] was “no other clinical signs of toxicity were noted” and the “tumor growth inhibition (TGI) relative to control” value ([1]; in 4 out of 7 models tested) was “greater than 70%”. The “binding to human Axl” value (human Axl; [3]) was “high affinity and specificity”, the “binding to human Axl” value (human Axl; [4]) was “reduced binding” and the “area under the concentration versus time curve (AUC)0-inf” value ([2]; 1 mg/kg/dose, Day 22) was 376 µg·h/mL. The “group mean maximum plasma exposure (C0)” value ([2]; 1 mg/kg/dose, Day 22) was 20.0 µg/mL, the AUC0-inf ([2]; 5 mg/kg/dose (HNSTD)) was 2370 µg·h/mL and the C0 ([2]; 5 mg/kg/dose (HNSTD), Day 22) was 111 µg/mL. For the same molecule, the “binding to mouse Axl” value (mouse Axl) was “not mouse or rat Axl; also recorded: lacked binding to the rodent enzyme”.
